According to paper PMC13585564:
pKd: −log10 of the molar value.

Experiments:
[1] = target: HSL3 ectodomain (wild type, residues 23–627); assay: ITC; conditions: ligand in syringe, receptor in cell; N = 1
[2] = target: HSL3 ectodomain (wild type, residues 23–627) (Arabidopsis); assay: ITC; CTNIP4 peptide (140–800 µM, syringe) injected into 15 µM HSL3 ectodomain or variant (cell); 25 °C; 20 mM sodium citrate, 150 mM NaCl, pH 5.0; N fitted to 1
[3] = target: SERK1 ectodomain (residues 24–213) (UniProt Q94AG2); assay: ITC; conditions: SERK1 in syringe; HSL3 + peptide in cell; N = 1
CTNIP4(46–70)_(Cys–Cys) = assay: ITC; conditions: ligand in syringe, receptor in cell; N = 1
SERK3 = assay: ITC; conditions: SERK3 in syringe; HSL3 + peptide in cell; N = 1

Sequence of SERK1 ectodomain (residues 24–213) (Q94AG2 whole entry, looked up, the tested form may be a part): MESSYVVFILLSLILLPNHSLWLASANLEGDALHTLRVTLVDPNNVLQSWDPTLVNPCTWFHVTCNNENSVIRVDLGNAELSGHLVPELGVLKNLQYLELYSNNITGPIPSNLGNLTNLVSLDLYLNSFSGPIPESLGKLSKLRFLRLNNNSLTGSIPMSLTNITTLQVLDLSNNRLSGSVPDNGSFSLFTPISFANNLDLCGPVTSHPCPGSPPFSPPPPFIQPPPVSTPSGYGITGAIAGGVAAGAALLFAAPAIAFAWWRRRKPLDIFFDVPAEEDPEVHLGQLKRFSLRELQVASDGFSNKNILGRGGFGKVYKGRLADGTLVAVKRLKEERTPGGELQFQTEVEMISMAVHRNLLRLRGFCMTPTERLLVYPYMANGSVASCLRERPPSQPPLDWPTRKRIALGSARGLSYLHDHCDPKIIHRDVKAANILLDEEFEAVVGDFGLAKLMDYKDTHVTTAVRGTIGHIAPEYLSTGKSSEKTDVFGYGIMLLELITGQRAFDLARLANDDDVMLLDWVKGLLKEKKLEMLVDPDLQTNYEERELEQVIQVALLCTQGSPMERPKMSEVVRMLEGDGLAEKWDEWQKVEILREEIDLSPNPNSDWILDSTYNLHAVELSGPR

CTNIP4(46–70)_(Cys–Cys) S53A showed a pKd [1] of 5.46 and an other: ΔH [1] of -17.5 kcal/mol.
In the case of “CTNIP4^C58A.C68A(46–70)_(linear) (peptide)”, the fold impairment of binding against CTNIP4(46–70) (Cys–Cys) [2] was 200 fold.
For HSL3 + CTNIP4(46–63) C58A, the other: ΔH [3] was -3.7 kcal/mol.
With “HSL3 ectodomain (wild type, residues 23–627) D241A” the other: ΔH (CTNIP4(46–70)_(Cys–Cys)) was -17.6 kcal/mol.
For “HSL3 ectodomain (wild type, residues 23–627) D288A”, the other: ΔH (CTNIP4(46–70)_(Cys–Cys)) was -3.4 kcal/mol.
“HSL3 ectodomain (wild type, residues 23–627) E171A” showed an other: ΔH (CTNIP4(46–70)_(Cys–Cys)) of -21.2 kcal/mol.
“HSL3 ectodomain (wild type, residues 23–627) R358A” gave a pKd (CTNIP4(46–70)_(Cys–Cys)) of 6.95 and an other: ΔH (CTNIP4(46–70)_(Cys–Cys)) of -25.9 kcal/mol.
For “HSL3–CTNIP4 complex (HSL3 ectodomain pre-incubated with CTNIP4(46–70)_(Cys–Cys)) C58A; C68A”, the other: ΔH [3] was -7.1 kcal/mol.
Work on “HSL3–CTNIP4 complex (HSL3 ectodomain pre-incubated with CTNIP4(46–70)_(Cys–Cys)) N60A” yielded an other: ΔH (SERK3) of 3.3 kcal/mol.
For “HSL3–CTNIP4 complex (HSL3 ectodomain pre-incubated with CTNIP4(46–70)_(Cys–Cys)) N60F”, the other: ΔH (SERK3) was 13.2 kcal/mol.
